Measurements: patent publication US20210070881A1 (DENALI THERAPEUTICS, published 2021)
Numbering of substitutions follows the chain as printed.

B1: 2H8.31 (antibody, human IgG1, V domains shown)
VH: EVQLQQSGPELVKPGASVKLSCKASGYTFTNFWIHWLKQRPGQGLEWIGMIDPSDSYTKYNQKFKAKATLTVDTSSSTTYMHLSSLTSEDSAVYYCARSGVAFPYWGQRTLVTVSA
VL: DIQMTQSQKFMSKSVGDRVSVTCKASQNVGSNVAWYQQKSGQSPKSLIYSASHRYSGVPDRFTGSGSGTDFTLTISNVQSEDLADYFCQQYNSYPYTFGGGTRLEIK
notes: human IgG1/kappa; also called 2H8_HC + 2H8_LCvar6
B2: 2H8.39 (antibody, human IgG1, V domains shown)
VH: B1 VH with P9A, K13R, A16T, N31S, F32Y, L37V, A66D
VL: B1 VL with Q3L, K13T, S31R, K39I, S46P, A84V, D85E, Y86F, R103K
notes: human IgG1/kappa; also called 2H8_HCvar3 + 2H8_LCvar7
B3: 2H8.04 (antibody, human IgG1, V domains shown)
VH: EIQLQQSGTELVRPGTSVKLSCKASGYTFTNYWMHWVKQRPGQGLEWIGMIDPSAAYTNYNQNFKGKATLTVDTSSGTAYMQLSSLTSEDSAVYYCARSGVAFPYWGQGTTVTVSS
VL: B1 VL with Q3V, R18T, N28D, S31R
notes: human IgG1/kappa; also called 2H8_HCvar4 + 2H8_LC
B4: 2H8.41 (antibody, human IgG1, V domains shown)
VH: EVQLQQPGAEVVRPGTSVKLSCKASGYTFTNYWMHWVKQRPGQGLEWIGMIDPSDNYTKYNQKLKGKATLTVDTSSSTANMHVNSLTSEDSAVYFCARSGVAFPYWGQGTLVTVSA
VL: B1 VL with Q3L, K13T, S31R, K39I, S46P, A84V, D85E, Y86F, R103K
notes: human IgG1/kappa; also called 2H8_HCvar5 + 2H8_LCvar7
B5: 2H8.05 (antibody, human IgG1, V domains shown)
VH: B4 VH
VL: B1 VL with Q3V, R18T, N28D, S31R
notes: human IgG1/kappa; also called 2H8_HCvar5 + 2H8_LC
B6: 2H8.35 (antibody, human IgG1, V domains shown)
VH: B4 VH
VL: B1 VL
notes: human IgG1/kappa; also called 2H8_HCvar5 + 2H8_LCvar6
B7: 2H8.37 (antibody, human IgG1, V domains shown)
VH: B1 VH
VL: B1 VL with Q3L, K13T, S31R, K39I, S46P, A84V, D85E, Y86F, R103K
notes: human IgG1/kappa; also called 2H8_HC + 2H8_LCvar7
B8: 2H8.32 (antibody, human IgG1, V domains shown)
VH: B3 VH with I2V, S7P, V37I, A55D, A56T, N59K, Y60F, G77S, S84N
VL: B1 VL
notes: human IgG1/kappa; also called 2H8_HCvar2 + 2H8_LCvar6
B9: 2H8.02 (antibody, human IgG1, V domains shown)
VH: B3 VH with I2V, S7P, V37I, A55D, A56T, N59K, Y60F, G77S, S84N
VL: B1 VL with Q3V, R18T, N28D, S31R
notes: human IgG1/kappa; also called 2H8_HCvar2 + 2H8_LC
B10: 2H8.42 (antibody, human IgG1, V domains shown)
VH: EVQLQQSGAELVRPGTSVKLSCKASGYTFNNYWMHWVKQRPGQGLEWIGMIDPSDDDIKNNQKFKGKATLTVDTSSSTAYMQLISLTSEDSAVYYCARSGVALPYWGQGTLVTVSA
VL: B1 VL with Q3L, K13T, S31R, K39I, S46P, A84V, D85E, Y86F, R103K
notes: human IgG1/kappa; also called 2H8_HCvar6 + 2H8_LCvar7
B11: hu2H8v4 (antibody, V domains shown)
VH: QVQLVQSGAEVKKPGASVKVSCKASGYTFTNFWIHWVRQAPGQGLEWMGMIDPSDSYTKYNQKFKARATLTRDTSTSTVYMELSSLRSEDTAVYYCARSGVAFPYWGQGTLVTVSS
VL: DIQMTQSPSSLSASVGDRVTITCKASQDVGRNVAWYQQKPGKAPKLLIYSASHRYSGVPSRFSGSGSGTDFTLTISSLQPEDFATYYCQQYNSYPYTFGQGTKVEIK
notes: humanized; also called hu2H8_HC5 + hu2H8_LC1
B12: hu2H8v12 (antibody, V domains shown)
VH: B11 VH with V37L, R72V, V79T
VL: B11 VL with A43S
notes: humanized; also called hu2H8_HC7 + hu2H8_LC2
B13: hu2H8v13 (antibody, V domains shown)
VH: B11 VH with A68V, L70M, V79T
VL: B11 VL with L46S
notes: humanized; also called hu2H8_HC1 + hu2H8_LC3
B14: hu2H8v15 (antibody, V domains shown)
VH: B11 VH with V37L, A68V, L70M, R72V, V79T
VL: B11 VL with L46S
notes: humanized; also called hu2H8_HC3 + hu2H8_LC3
B15: hu2H8v5 (antibody, V domains shown)
VH: B11 VH with R72V
VL: B11 VL
notes: humanized; also called hu2H8_HC6 + hu2H8_LC1
B16: hu2H8v6 (antibody, V domains shown)
VH: B11 VH with V37L, R72V, V79T
VL: B11 VL
notes: humanized; also called hu2H8_HC7 + hu2H8_LC1
B17: hu2H8v9 (antibody, V domains shown)
VH: B11 VH with V37L, A68V, L70M, R72V, V79T
VL: B11 VL with A43S
notes: humanized; also called hu2H8_HC3 + hu2H8_LC2
B18: hu2H8v28 (antibody, V domains shown)
VH: B11 VH
VL: B11 VL with A43S, L46S, Y87F
notes: humanized; also called hu2H8_HC5 + hu2H8_LC5
B19: hu2H8v19 (antibody, V domains shown)
VH: B11 VH with A68V, L70M, V79T
VL: B11 VL with A43S, L46S
notes: humanized; also called hu2H8_HC1 + hu2H8_LC4
B20: hu2H8v21 (antibody, V domains shown)
VH: B11 VH with V37L, A68V, L70M, R72V, V79T
VL: B11 VL with A43S, L46S
notes: humanized; also called hu2H8_HC3 + hu2H8_LC4
B21: hu2H8v23 (antibody, V domains shown)
VH: B11 VH with R72V
VL: B11 VL with A43S, L46S
notes: humanized; also called hu2H8_HC6 + hu2H8_LC4
B22: hu2H8v14 (antibody, V domains shown)
VH: B11 VH with V37L, A68V, L70M, V79T
VL: B11 VL with L46S
notes: humanized; also called hu2H8_HC2 + hu2H8_LC3
B23: hu2H8v16 (antibody, V domains shown)
VH: B11 VH
VL: B11 VL with L46S
notes: humanized; also called hu2H8_HC5 + hu2H8_LC3
B24: hu2H8v20 (antibody, V domains shown)
VH: B11 VH with V37L, A68V, L70M, V79T
VL: B11 VL with A43S, L46S
notes: humanized; also called hu2H8_HC2 + hu2H8_LC4
B25: hu2H8v25 (antibody, V domains shown)
VH: B11 VH with A68V, L70M, V79T
VL: B11 VL with A43S, L46S, Y87F
notes: humanized; also called hu2H8_HC1 + hu2H8_LC5
B26: hu2H8v18 (antibody, V domains shown)
VH: B11 VH with V37L, R72V, V79T
VL: B11 VL with L46S
notes: humanized; also called hu2H8_HC7 + hu2H8_LC3
B27: hu2H8v7 (antibody, V domains shown)
VH: B11 VH with A68V, L70M, V79T
VL: B11 VL with A43S
notes: humanized; also called hu2H8_HC1 + hu2H8_LC2
B28: hu2H8v30 (antibody, V domains shown)
VH: B11 VH with V37L, R72V, V79T
VL: B11 VL with A43S, L46S, Y87F
notes: humanized; also called hu2H8_HC7 + hu2H8_LC5
B29: hu2H8v26 (antibody, V domains shown)
VH: B11 VH with V37L, A68V, L70M, V79T
VL: B11 VL with A43S, L46S, Y87F
notes: humanized; also called hu2H8_HC2 + hu2H8_LC5
B30: hu2H8v10 (antibody, V domains shown)
VH: B11 VH
VL: B11 VL with A43S
notes: humanized
B31: hu2H8v22 (antibody, V domains shown)
VH: B11 VH
VL: B11 VL with A43S, L46S
notes: humanized; also called hu2H8_HC5 + hu2H8_LC4
B32: hu2H8v11 (antibody, V domains shown)
VH: B11 VH with R72V
VL: B11 VL with A43S
notes: humanized; also called hu2H8_HC6 + hu2H8_LC2
B33: hu2H8v24 (antibody, V domains shown)
VH: B11 VH with V37L, R72V, V79T
VL: B11 VL with A43S, L46S
notes: humanized; also called hu2H8_HC7 + hu2H8_LC4
B34: hu2H8v8 (antibody, V domains shown)
VH: B11 VH with V37L, A68V, L70M, V79T
VL: B11 VL with A43S
notes: humanized; also called hu2H8_HC2 + hu2H8_LC2
B35: hu2H8v29.12 (antibody, V domains shown)
VH: B11 VH with T30N, R72V
VL: B11 VL with A43S, L46S, Y87F
notes: captured via human Fc; also called hu2H8_LC5 + hu2H8_HC6.1

biological target: T1, recombinant BACE1 (BACE1 extracellular domain, R&D Systems Cat#931-AS) (UniProt P56817 22-457); assay: SPR Biacore
T1 construct: extracellular domain; also called BACE1 extracellular domain protein
T1 sequence (P56817 22-457): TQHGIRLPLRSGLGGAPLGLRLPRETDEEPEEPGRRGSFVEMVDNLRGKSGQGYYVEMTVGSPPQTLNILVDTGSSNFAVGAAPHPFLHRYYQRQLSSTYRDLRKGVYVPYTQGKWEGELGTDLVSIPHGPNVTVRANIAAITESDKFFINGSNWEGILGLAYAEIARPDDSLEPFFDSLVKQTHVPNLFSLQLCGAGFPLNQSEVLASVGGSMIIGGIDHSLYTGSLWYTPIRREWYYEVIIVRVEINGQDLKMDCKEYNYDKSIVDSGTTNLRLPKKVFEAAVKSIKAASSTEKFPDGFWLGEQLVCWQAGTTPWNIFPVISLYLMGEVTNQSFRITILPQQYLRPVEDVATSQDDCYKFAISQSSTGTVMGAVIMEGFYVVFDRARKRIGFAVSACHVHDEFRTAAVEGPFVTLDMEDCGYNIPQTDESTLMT

Kd [µM]	koff [s⁻¹]	kon [M⁻¹ s⁻¹]	Binder
0.0111	0.000168	15200	B1
0.013	0.000217	16600	B2
0.0156	0.000362	23300	B3
0.0107	0.000197	18500	B4
0.0137	0.000251	18300	B5
0.0152	0.000171	11200	B6
0.0164	0.000331	20200	B7
0.0114	0.000172	15100	B8
0.0131	0.000265	20200	B9
0.0116	0.000221	19000	B10

biological target: T1, recombinant BACE1 (BACE1 extracellular …); assay: SPR Biacore; remark: another data set of the same source

Kd [µM]	Binder
0.169	B11
0.171	B12
0.0228	B13
0.0164	B14
0.0963	B15
0.109	B16
0.13	B17
0.0195	B18
0.0174	B19
0.0135	B20
0.028	B21
0.0177	B22
0.0256	B23
0.0132	B24
0.0221	B25
0.0207	B26
0.15	B27
0.0237	B28
0.0163	B29
0.16	B30
0.0219	B31
0.0883	B32
0.074	B33
0.155	B34

biological target: cellular BACE1 in CHOK1-huAPP cells; assay: cell-based or functional assay

IC50 [µM]	Max. % inhibition [%]	Binder
0.033	94	B1
0.043	86	B2
0.026	82	B3
0.036	86	B4
0.044	87	B5
0.041	85	B6
0.032	93	B7
0.061	86	B8
0.042	81	B9
0.053	97	B10

biological target: T1, recombinant BACE1 (BACE1 extracellular …); assay: SPR Biacore 8K, antibody captured, BACE1 analyte
Protocol: The binding affinities of the affinity matured humanized 2H8 variants for BACE1 were determined by surface plasmon resonance using a Biacore™ 8K instrument. […] The binding was monitored for 300 seconds and then dissociation was monitored for 600+ seconds in HBS-EP+ running buffer (GE Healthcare Life Sciences, BR100669). Binding response was corrected by subtracting the RU from a blank flow cell. A 1:1 Langmuir model of simultaneous fitting of kₒₙ and koff was used for kinetics analysis.

Kd [µM]	Binder
0.00842	B35
